In this experiment the target is T1, Bacteriorhodopsin, P02945.
T1 chain: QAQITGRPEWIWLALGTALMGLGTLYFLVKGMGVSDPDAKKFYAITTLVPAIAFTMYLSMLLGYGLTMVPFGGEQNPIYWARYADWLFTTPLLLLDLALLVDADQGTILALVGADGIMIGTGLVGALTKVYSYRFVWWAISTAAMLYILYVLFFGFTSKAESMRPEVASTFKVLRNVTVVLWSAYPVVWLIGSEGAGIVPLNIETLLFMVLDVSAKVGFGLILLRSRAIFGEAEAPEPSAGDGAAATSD
Kind of experiment: SEC. The conditions noted are these: remark: other sources report otherwise.

B1: Bacteriorhodopsin, P02945 14-262 (natural protein)
chain: T1 chain
As usually defined, the stoichiometry N is a count of units in the complex or per binding partner. Molecule B1 came in with a stoichiometry N of 3 per nanodisc.

The record behind these values is paper PMC5051544.
